± gives the uncertainty stated by the source.

This data set can be described thus: amyloid nucleation score (Sup35N fusion, yeast selection) (log enrichment); library NNK1; higher = more nucleation; inactive = no reads after selection. Summed up:
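DiMSum was used to calculate nucleation scores as log enrichment of output over input reads, centred on the mode score of non-aggregating sequences. Sequences with fewer than 100 input reads were not scored. Input and output came from Illumina sequencing of plasmid inserts in psi-negative yeast expressing peptides of 20 random codons fused to Sup35N, induced 24 hours with 100 μM copper sulfate and then grown 7 days at 30°C on medium lacking adenine and uracil.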

In the case of FMELEELCSCNERGLLWTPA, the amyloid nucleation score was 1.6 ± 0.27.

The substance FSVRHLSVSVLRMGTHLLDA gave an amyloid nucleation score of -0.746 ± 0.61. The substance GFYIDDYES registered an amyloid nucleation score of -1.39 ± 2.7. Substance RNLRY registered an amyloid nucleation score of 0.184 ± 1.1. SVACPGLARMGRRSGREYNE returned an amyloid nucleation score of -1.46 ± 0.59.

As to DSWEYFLP, the amyloid nucleation score was -0.375 ± 0.53. As for VFSIIRPGMASSLHGQVQIA, the amyloid nucleation score turned out to be 1.28 ± 0.69.

GGGEATLREFFKECGK: the amyloid nucleation score was -0.603 ± 0.35. On to SSSVCPLHSADSCVSGISAD, for which the amyloid nucleation score came out at 1.73 ± 0.64.

The substance LRYIMPDND displayed an amyloid nucleation score of -1.09 ± 1.5. NVWSKWCERGNSDPIVPQAA showed an amyloid nucleation score of -0.458 ± 0.35.

As to LNLLYASWYYSFGVR, the amyloid nucleation score was -0.194 ± 0.24. For the substance VLVFCVTMVRNYSWCIGWRI, the amyloid nucleation score came out at 0.035 ± 0.44. In the case of QCAWCTRSVNNMYQTLEYHI it was 6.151 ± 0.049; in that of RSYGGLIKFNHVSDTL, -0.429 ± 0.93; in that of FWIFRVLSINANTELSWDIV, -0.631 ± 0.32.

VNFYDLVL: the amyloid nucleation score was determined as 0.318 ± 0.46. In the case of FPDYVDTTFRQIWECLWFFP, the amyloid nucleation score entry was “inactive”. For TVRSYRSGRCYNFIVNRERA, the amyloid nucleation score is -0.177 ± 0.75. In turn, LNFDNFLLMWTMLVNRIISD returned an amyloid nucleation score of 0.574 ± 0.97. Take KVHKLIDNYMLRSRWY: the amyloid nucleation score is -0.139 ± 0.9.

For the substance RRGLCGNAKAIIRGLAQGWD, the amyloid nucleation score was -1 ± 1.2. WWSYQF: the amyloid nucleation score amounted to 0.725 ± 0.39. GTSKTTGERDWLRPMTRDI gave an amyloid nucleation score of -0.94 ± 2.7. As for FGVEYWWSLGCVWGTLLGYN, the amyloid nucleation score entry is “inactive”. On to FLCEAFDQGNLVIIDP, for which the amyloid nucleation score was -0.502 ± 0.46.

The substance SFCNFQGVRFFL displayed an amyloid nucleation score of 1.73 ± 0.2. With SSFKWLAASWLQGALHTMRG, the amyloid nucleation score is -0.348 ± 0.79. LACTSASSVSRESFMYSQMS: the amyloid nucleation score came to 2.78 ± 0.16. As to AIHMEHCCFVNVQRILRFVV, the amyloid nucleation score came to 4.68 ± 0.092. QFVHGRNETIRSFNCPGLAE displayed an amyloid nucleation score of -0.007 ± 1.2. Substance VLKTWVIDNKSVGEMCNLNG yielded an amyloid nucleation score of 0.556 ± 0.85. In turn, YIHGGVMCKDPAPFSYFASI had an amyloid nucleation score of -0.114 ± 0.59.

Substance DFYLWPGMFSKYLGLNATLS had an amyloid nucleation score of -0.604 ± 0.57.

FKTTDHFVGVYCLLYAKKQG returned an amyloid nucleation score of -0.235 ± 0.77. Take CISIACSAD: the amyloid nucleation score was 0.342 ± 0.73.

Consider VTSSWNSDAFTWFYNDSWCL, for which the amyloid nucleation score result was “inactive”. Regarding IVGFHGSNFYSDVSVIGQML, the amyloid nucleation score result was “inactive”. For LFLFTGLSSRSLHMCIYEIL, the amyloid nucleation score is -0.046 ± 0.34.

For the substance LSPSSMN, the amyloid nucleation score entry is “inactive”. As to ISRSICKREVLQVDR, the amyloid nucleation score came to 0.378 ± 0.51. Then MNVGCSVVWIKCLNACTSKQ, with 6.168 ± 0.06.

Substance VLGTLSMFYFRAYFRPAWLS gave an amyloid nucleation score of -0.278 ± 0.5. Turning to RRVNNKLRSTSGSTLTCCTY, the amyloid nucleation score turned out to be 0.216 ± 1.4. PGMNSRCCA yielded an amyloid nucleation score of 0.48 ± 0.72.

HLGSNFKISAGAINVRLSHR gave an amyloid nucleation score of 4.76 ± 0.1. As to SFYVWDDSYCFVFGCTSVKC, the amyloid nucleation score is -0.291 ± 0.47. Take HLYTVTHGSLNDKTGRP: the amyloid nucleation score was 0.31 ± 0.97. In turn, LQTSRHFSLRWWCMYSWGNS came in with an amyloid nucleation score of 1.41 ± 0.51. Take QIINKFTSDIVLTD: the amyloid nucleation score came out at 0.456 ± 0.38. In the case of VLLVGDPDLPRKRRLRRIAE it was 1.23 ± 0.62; in that of TLIIGYRA, 0.964 ± 0.51; in that of VWFRCWSPEVENGHVCLSCS, -0.026 ± 0.41. Take SLDYVSQFIQLLRFFKFYMV: the amyloid nucleation score result is “inactive”. Take WFTDGT: the amyloid nucleation score result is “inactive”.

Turning to EKGRFVRLDERLYYLCVVWS, the amyloid nucleation score amounted to 0.163 ± 0.66. For the substance ENCFSCNEYCERYSPALCGQ, the amyloid nucleation score result is “inactive”. Take FRIYLYLTCGLCSIIHYFVP: the amyloid nucleation score amounted to 0.818 ± 0.25.

With RCFECEGALV, the amyloid nucleation score was -0.08 ± 1.1. On to VWTSWDGRSLIAEWVCYLE, for which the amyloid nucleation score stood at 6.232 ± 0.048. Substance ESQSRGLMIVNGDFKD gave an amyloid nucleation score of 0.018 ± 0.37. Then SFYILTHTNFGTFPLFDDRH, with -0.897 ± 0.69; and IFTRW, with -0.741 ± 0.49; and TRYLRIWSPSQMICMWGRFL, with 0.145 ± 0.5.

As to SYEFVVRSWLSLYLINFKSS, the amyloid nucleation score result is “inactive”. On to YPAPPTNCLRQ, for which the amyloid nucleation score was -0.449 ± 0.28. For KLRSGCLDYIVIDLWTF, the amyloid nucleation score was -0.439 ± 0.39. NDSICIVVLS came in with an amyloid nucleation score of -0.009 ± 0.84. Substance TNLLSLMMFDSKCIISEGIM displayed an amyloid nucleation score of -0.567 ± 1.7. Then YWTSIHSLNTSIP, with -0.229 ± 0.62; and LIVVVTLSGEHRFSVMVYRN, with -0.001 ± 0.64. Substance GERDACYPKSLD gave an amyloid nucleation score of -1.06 ± 2.4. SVWCGSWVYNTLRLNMGTNL came in with an amyloid nucleation score of 3.01 ± 0.15. Substance FSLDMSTCVLENFVLDTFQH showed an amyloid nucleation score of -2.21 ± 2.7. Substance VDDHDPKIGSMLPSIPNGVQ showed an amyloid nucleation score of -0.571 ± 0.42. RCTLISRHDWGYANWMRLLL registered an amyloid nucleation score of 4.81 ± 0.077. In turn, SMLLSRKHCGGVNEKHFM had an amyloid nucleation score of -0.311 ± 0.35. Turning to MEWDAYVMI, the amyloid nucleation score is 0.442 ± 0.84. For the substance QSVHDTHSCHGSH, the amyloid nucleation score stood at 0.5 ± 0.63. Turning to CHYVKPVFTICQVPTFIESI, the amyloid nucleation score is 1.43 ± 0.51. Take LILILNGMRNWSLAEDGACS: the amyloid nucleation score was 0.326 ± 0.85. Substance RTEGVET gave an amyloid nucleation score of -0.251 ± 0.58. Regarding MFAWLDDLFRY, the amyloid nucleation score was -0.3 ± 0.38. On to VMCAGQESESIRGGYSEVNG, for which the amyloid nucleation score is 1.17 ± 0.39. Then RVDGVKIRGYNWHLLMITCI, with 0.083 ± 0.6. On to YMPRSQIGSTSHVNWREMAE, for which the amyloid nucleation score is -0.311 ± 0.33. SVTLCKFRKT yielded an amyloid nucleation score of -0.197 ± 0.37. TEGYVFKCVGKMFLFRFSFA came in with an amyloid nucleation score of -0.114 ± 0.36. FDNLWRQYYVIGWILARAFS returned an amyloid nucleation score of -0.983 ± 0.9. For the substance VSDHT, the amyloid nucleation score was determined as 1.02 ± 0.47.

As for TRTGSRHPWRCLSDIASCNG, the amyloid nucleation score is 0.466 ± 0.32. Then WHSSSLMWHNKLS, with “inactive”; and GYKGQCIIYSTVDSRN, with 0.07 ± 0.35.

GGRLRW displayed an amyloid nucleation score of 0.452 ± 0.48. Substance VMRPFWMMMFYFYVEPEALS displayed an amyloid nucleation score of -0.584 ± 0.95. On to MYSKIYIFNLEFLMTYWNAL, for which the amyloid nucleation score was 1.92 ± 0.3.

For the substance PDNRAINVFTLPVAVS, the amyloid nucleation score was found to be 0.71 ± 0.44. KIALTLIRRLQFLNDSVKPQ: the amyloid nucleation score turned out to be 1.71 ± 0.17. With GDHFPEDGYSLEIADR, the amyloid nucleation score was -0.737 ± 1.2.

With VSSFLLRSFRKCRPLCYIVR, the amyloid nucleation score turned out to be 3.89 ± 0.085. In turn, SAAPRFCSYSSFFALSNLSI came in with an amyloid nucleation score of 0.615 ± 0.3. In the case of WASFGPLGAQVPDRRFIYMP it was 0.151 ± 0.81; in that of VLQQGTSLTKYV, 0.509 ± 0.42; in that of FFHAIIWRLIYRQFPDFVG, 0.984 ± 0.43.

Substance NLDKNGYRTCNLKISYHMSR registered an amyloid nucleation score of 1.28 ± 0.32.

For WQLTGISIWARFMFYVWQGK, the amyloid nucleation score is -1.34 ± 0.92.

FLNMASIFNFLHTNRF displayed an amyloid nucleation score of 0.054 ± 1.2. Take IWLFFFPMSLRFASYWTGLL: the amyloid nucleation score was -1.1 ± 0.81. Then TSVVVRSPRGVVEPKHYFCI, with -1.19 ± 2.4; and CQSGMSDDEGGQGRFVKCMG, with 0.114 ± 0.51. The substance FNYVICYSLCVVFWARRWCN registered an amyloid nucleation score of 1.75 ± 0.14. In the case of FLGGDTRIDHGTLWWSLIRQ, the amyloid nucleation score was 0.032 ± 0.35.

LHRYNYLVYRSTKCMFGVLI: the amyloid nucleation score is 0.222 ± 0.52. As for SDLELTTLFF, the amyloid nucleation score is -0.57 ± 0.37. Then LEVMRWYWESLLACISLCD, with 0.853 ± 0.74; and AISVGVFRVWC, with 3.53 ± 0.09. For KRPSMM, the amyloid nucleation score is -0.18 ± 0.3. For the substance ISSRRCVRED, the amyloid nucleation score result was “inactive”. SEYETG came in with an amyloid nucleation score of 0.101 ± 0.34.

Substance PSVTVYIYNLSSIFYGIRDL came in with an amyloid nucleation score of 6.71 ± 0.075. Substance KCHLFKHLL gave an amyloid nucleation score of 1.66 ± 0.6. In turn, HFMWAYRCSDYDLM gave an amyloid nucleation score of 2.01 ± 0.11. Substance VLYTTLHGFYHNCWLWLRYS gave an amyloid nucleation score of -0.191 ± 0.42.

HYGVDEAFGRWDGVLMCQKV came in with an amyloid nucleation score of -0.134 ± 0.4. As for MLSNGGLHVRSK, the amyloid nucleation score was found to be 1.31 ± 0.93. With GPFHRWNL, the amyloid nucleation score was -0.129 ± 1.6. On to IYTRFFNTV, for which the amyloid nucleation score is -0.222 ± 0.36. Then FFRMMKSLFQMRVRIDCRMG, with -0.653 ± 1.4; and QNLVLVKPEVFGTSRLLCGH, with 0.184 ± 0.53. Turning to IVIAVMSGSYVSLKSWFLRH, the amyloid nucleation score was -1.5 ± 1.3.

The substance LCAISHIE showed an amyloid nucleation score of -0.502 ± 0.28. Then ETHVRAPSGGNAGPLRRGSS, with -0.877 ± 0.52. In turn, AWDVLMHM had an amyloid nucleation score of 0.248 ± 0.49. Take GASAEEIYCQP: the amyloid nucleation score was -0.513 ± 0.34. Consider LIALLLAWDMYI, for which the amyloid nucleation score stood at 0.18 ± 0.32. On to CVCYRTDRVARTGCNEPSMQ, for which the amyloid nucleation score is 0.177 ± 0.59. With DCTEH, the amyloid nucleation score result was “inactive”. Then GKFSDSHIVA, with 0.308 ± 0.46; and HYSHAWTVSRLMWNRDERGA, with 1.59 ± 0.2. As to GMWSTNANTPILVILRGVVM, the amyloid nucleation score is 0.71 ± 1.1.

The values are drawn from the supplement of paper PMC12042874.
